Data reported in the DeepSol protein solubility set.

Assay: soluble on expression in E. coli; label from the status in PepcDB or PDB records

Sequence | soluble on expression in E. coli
MGASMTGGQQMGAPITAYAQQTRGLLGCIITSLTGRDKNQVEGEVQIVSTATQTFLATCINGVCWTVYHGAGTRTIASPKGPVIQMYTNVDQDLVGWPAPQGSRSLTPCTCGSSDLYLVTRHADVIPVRRRGDSRGSLLSPRPISYLKGSSGGPLLCPAGHAVGLFRAAVCTRGVAKAVDFIPVENLETTMRSGSHHHHHH | soluble
MDVLSGTQVTDPEQLIVNREEVDDIELKMAELLSDLERKVLALYLDGRSYQEISEELNRHVKSIDNALQRVKRKLEKYLEYREISL | not soluble
HSHDWLTYPAGIHAKTVTGKPLVVHVHATDFDRSRGNVNPQVFAIEKDGMNHADHIITVSNLTRRTVIEKYGQHPDKVTTVHNAVEPLPASILALPDKRGVKDKVITFLGRITMQKGPEYFVEAAAKVLERTSDVRFVMAGNGDMMDAMIRLAARHKIADRFHFTGFMKGEQVYEVFKASDVYVMPSVSEPFGISPLEAMQCGVPSIISKQSGCAEILDYAIKVDYWDIDAMADAMHALIAYPELHTFLRDEGLREVNNIKWETAGQKVRDIYNKVTGR | not soluble
MAHHHHHHMSKADENGNELMEIEEVAVSDGGAARFAAVDVKSGEERFNVIWQDSGKLMRFDEGENQWKERGQGTAKVLQRKDNTSKYMFVFRREGVGKLAAQHYLVKGMKVTKHKQGEKILVWSAFKDFTDDEEGFPENFVMRLSSKEAADKALAEMMGAIEKSSV | soluble
MATTLPVQRHPRSLFPEFSELFAAFPSFAGLRPTFDTRLMRLEDEMKEGRYEVRAELPGVDPDKDVDIMVRDGQLTIKAERTEQKDFDGRSEFAYGSFVRTVSLPVGADEDDIKATYDKGILTVSVAVSEGKPTEKHIQIRSTN | soluble
MGHHHHHHSHMPVVIKEVPSSEAAEDVMVAAPLVCSGKVLEVQVVNQTSVHVDLGSQPKENEAEPSTASSVPLQDEQEPPAYDQAPEVTLQADIEVMSTVHISSVYNDVPVTEGVVYIEQLPEQIVIPFTDQVACLKENEQSKENEQSPRVSPKSVVEKTTSGMSKKSVESVKLAQLEENAKYSSVYMEAEATALLSDTSLKGQPEVPAQLLDAEGAIKIGSEKSLHLEVEITSIVSDNTGQEESGENSVPQEMEGKPVLSGEAAEAVHSGTSVKSSSGPFPPAPEGLTAPEIEPEGEATAE | not soluble
MKLSQMQAGERGIILALDGLSDTVRKKLMVMGVLPNTEVVLIRRAPMGDPLQVEVRGVSIALRENIAANIDVERAQ | not soluble
MAHHHHHHMPLYRLSVSAETEGVVCIRPMRPRNWGLKVTCDACREFSPNFVYVDESEECDSGGGGTRNAAFKCASCKTLITAHIDPESYGTYRPEEDNGKGDGNSILIIEVRGATPTELEIDDKWVVEAEGATFEAADLSTDWMEYDEKSGNAVSVSQFTVEFSRLKK | soluble
MGSDKIHHHHHHMCRWLAYTGNPIPLETVLFRAKHSLIDQSLHSRMGATTTNGDGFGIGWYGQPDEVPFIYRCVSPAWNDRNLREAARAIRSPLFVAHVRSATDTPVQETNCHPFRRGRWLFAHNGLIRRYHTLRRDLMMRIDPGLFASIEGSTDSEVMFHLALTFGLEHDPLAALERMAGAIEDAGAHHRVDAPLNMTVCATDGEQVVAVRYSSEHDSRSLFHSTSFRHLHELYPHDPRIRAIGDDAFLVLSEPLVDLHDAWEKIPESTAIIARRGDIRQVPFQPRRST | not soluble
MSMSHINYNHLYYFWHVYKEGSVVGAAEALYLTPQTITGQIRALEERLQGKLFKRKGRGLEPSELGELVYRYADKMFTLSQEMLDIVNYRKESNLLFDVGVADALSKRLVSSVLNAAVVEGEPIHLRCFESTHEMLLEQLSQHKLDMIISDCPIDSTQQEGLFSVRIGECGVSFWCTNPPPEKPFPACLEERRLLIPGRRSMLGRKLLNWFNSQGLNVEILGEFDDAALMKAFGAMHNAIFVAPTLYAYDFYADKTVVEIGRVENVMEEYHAIFAERMIQHPAVQRICNTDYSALFSPAVR | soluble
AHHHHHHGSITRGRVWKFGDNISTDAITPGRYNLTKDPNELAKIAFIEERPEFSKEVKPGDVVVGGKNFGIGSSRESAALALKAAGVGGVIAKSFGRIFFRNAVNLGLPLLIGNTDPLLDGEIVEVNWRSGEVKKEDGEVLKFKPLDSFLLAIVEEGGIIEYIRRRGDLWIQ | soluble
